# Test results: patent publication US20170137838
# Read-outs that look alike come from different tables or passages of the source.
# Test system: ONAC131 (Os12g03040.1) (Oryza sativa subsp. japonica cv. Nipponbare)
# [1] = relative to SO1, SD 0.03, CELD assay
# [2] = relative to SO1, SD 0.01, CELD assay
# [3] = relative to SO1, SD 0.05, CELD assay
sequence,measurement,setting,value
AATCCACCGCCATAAATCTACGTAACAAGTCA (double strand) [Rice chitinase site II],binding signal,"relative to SO1, CELD assay",0
CACTTGACACGTGGGATCCACGTCACCATCCT (double strand) [Rice glyoxalase I family promoter element],binding signal,[1],0.29
GAGATCCGTGCACAGTAAATAACTGTTACA (double strand) [SO1m14],binding signal,"relative to SO1, CELD assay",0
GAGATCCGTGCACAGTACGTAACTGTTACA (double strand) [SO1 (TaNAC69 high affinity binding site I)],binding signal,"CELD reporter assay on streptavidin plate, reference, SD 0.03, pH 7.0, 50 mM KCl, 2 mM MgCl2",1
GAGATCTGTGCACAGTACGTAACTGTTACA (double strand) [SO1m28],binding signal,[2],0.01
GAGGCCCTTAATGTTTACACGTCTCTAGTG (double strand) [SO39m6],binding signal,[2],0.18
GAGGTGTTTAATGTTTACACGTCTCTAGTG (double strand) [SO39 (TaNAC69 high affinity binding site II)],binding signal,[3],0.93
GATTTGTCTCGTAATTTACACGTAATCTGTGT (double strand) [Rice ZIM family protein promoter element],binding signal,[3],0.43
GCCAGCGTTCTGTTTCTGTACGTCTCTCTGGG (double strand) [Arabidopsis glyoxalase I family 5'-UTR element],binding signal,"relative to SO1, SD 0.03, same sequence as rice chitinase site I",1.07
GCCAGCGTTCTGTTTCTGTACGTCTCTCTGGG (double strand) [Rice chitinase site I],binding signal,[1],1.07
TTCCGTAGTTTACTGGATCACGACACACACAC (double strand) [Rice chitinase site III],binding signal,"relative to SO1, SD 0.02, CELD assay",0.15
